Measured values as given in patent US20200317768A1 (published 2020).
Substitutions are numbered along the chain they refer to.

T1: cynomolgus monkey FcγRIIa2 extracellular domain, His-tagged (cynomolgus monkey)
T1 construct: also called cyno FcγRIIa2; cynoFcgRIIa2; not shown: C-terminal His-tag
T1 chain: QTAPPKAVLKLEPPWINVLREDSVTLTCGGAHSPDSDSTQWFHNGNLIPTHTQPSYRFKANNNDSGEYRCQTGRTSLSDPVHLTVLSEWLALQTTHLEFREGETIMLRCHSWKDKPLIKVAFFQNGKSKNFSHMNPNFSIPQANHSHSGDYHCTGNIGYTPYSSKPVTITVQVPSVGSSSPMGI

T2: cynomolgus monkey FcγRIIIaS extracellular domain, His-tagged (cynomolgus monkey, UniProt Q8SPW2 21-206 at identity 1.00))
T2 construct: also called cyno FcγRIIIaS; cynoFcγRIIIaS; not shown: C-terminal His-tag
T2 chain: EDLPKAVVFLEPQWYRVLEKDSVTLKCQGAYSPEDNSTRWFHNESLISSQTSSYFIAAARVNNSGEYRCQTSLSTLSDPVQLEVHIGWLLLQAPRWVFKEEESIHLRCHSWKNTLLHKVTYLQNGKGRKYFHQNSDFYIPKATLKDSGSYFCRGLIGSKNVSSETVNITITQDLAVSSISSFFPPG

T3: cynomolgus monkey FcγRIIb extracellular domain, His-tagged (cynomolgus monkey)
T3 construct: also called cyno FcγRIIb; cynoFcγRIIb; not shown: C-terminal His-tag
T3 chain: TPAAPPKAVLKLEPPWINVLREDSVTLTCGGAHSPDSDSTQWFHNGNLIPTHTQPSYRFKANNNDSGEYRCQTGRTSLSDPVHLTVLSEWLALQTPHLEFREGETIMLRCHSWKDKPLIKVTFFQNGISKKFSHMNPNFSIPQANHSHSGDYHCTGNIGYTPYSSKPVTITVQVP

T4: cynomolgus monkey FcγRIIa3 extracellular domain, His-tagged (cynomolgus monkey)
T4 construct: also called cyno FcγRIIa3; cynoFcgRIIa3; not shown: C-terminal His-tag
T4 chain: T1 chain with K127I, N130K, H133P, Q142R

T5: human FcγRIIb extracellular domain, His-tagged (human, UniProt P31994 43-217)
T5 construct: also called FcgRIIb (human); not shown: C-terminal His-tag
T5 sequence: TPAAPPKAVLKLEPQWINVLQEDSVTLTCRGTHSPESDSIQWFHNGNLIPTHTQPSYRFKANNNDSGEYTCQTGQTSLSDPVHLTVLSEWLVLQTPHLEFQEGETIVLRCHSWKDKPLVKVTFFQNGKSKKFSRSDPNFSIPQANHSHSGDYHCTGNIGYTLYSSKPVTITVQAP

T6: human FcγRIIaH extracellular domain, His-tagged (human, UniProt P12318 34-217)
T6 construct: also called human FcγRIIa (type H); FcgRIIaH; not shown: C-terminal His-tag
T6 sequence: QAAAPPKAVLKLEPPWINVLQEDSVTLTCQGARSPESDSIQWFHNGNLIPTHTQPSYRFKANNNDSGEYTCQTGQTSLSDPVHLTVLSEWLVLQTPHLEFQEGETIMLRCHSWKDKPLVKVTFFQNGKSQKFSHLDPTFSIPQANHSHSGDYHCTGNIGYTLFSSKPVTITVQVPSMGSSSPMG

T7: cynomolgus monkey FcγRIIa1 extracellular domain, His-tagged (cynomolgus monkey)
T7 construct: also called cyno FcγRIIa1; cynoFcgRIIa1; not shown: C-terminal His-tag
T7 chain: T1 chain with T95P, A121T, K127I, S128A, N130K, N135D, Q142R

T8: human FcγRIIaR extracellular domain, His-tagged (human, UniProt P12318 34-217)
T8 construct: also called human FcγRIIa (type R); FcgRIIaR; not shown: C-terminal His-tag
T8 chain: T6 sequence with H134R

B1: MS_M103205H795-SG1/M103202L889-SK1 (antibody, human IgG1, kappa)
heavy: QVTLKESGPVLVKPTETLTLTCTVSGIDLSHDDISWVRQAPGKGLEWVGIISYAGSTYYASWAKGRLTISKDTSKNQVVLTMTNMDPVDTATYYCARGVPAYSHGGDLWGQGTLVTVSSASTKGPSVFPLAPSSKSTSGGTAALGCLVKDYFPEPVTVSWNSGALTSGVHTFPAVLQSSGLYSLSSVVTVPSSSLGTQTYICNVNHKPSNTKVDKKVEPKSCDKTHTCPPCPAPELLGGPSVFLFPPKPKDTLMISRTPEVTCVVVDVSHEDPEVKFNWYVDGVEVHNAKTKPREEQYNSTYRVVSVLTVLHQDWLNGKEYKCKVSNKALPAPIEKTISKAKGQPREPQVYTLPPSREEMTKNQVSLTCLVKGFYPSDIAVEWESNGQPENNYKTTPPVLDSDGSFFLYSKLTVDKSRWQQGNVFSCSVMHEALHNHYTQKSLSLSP
light: DIVMTQSPATLSLSPGERATLSCTSSQSVYHANWLSWFQQKPGQPPKLLIYWASTLAYGVPSRFSGSGSGTDFTLTISSLQPEDAATYYCAGGYGGGRYAFGQGTKVEIKRTVAAPSVFIFPPSDEQLKSGTASVVCLLNNFYPREAKVQWKVDNALQSGNSQESVTEQDSKDSTYSLSSTLTLSKADYEKHKVYACEVTHQGLSSPVTKSFNRGEC
notes: Parent antibody with heavy chain constant region SG1; also called MS1032LO06-SG1; copies: 2 + 2
B2: M103205H795-MY444/M103202L889-SK1 (antibody, human IgG1, kappa)
heavy: QVTLKESGPVLVKPTETLTLTCTVSGIDLSHDDISWVRQAPGKGLEWVGIISYAGSTYYASWAKGRLTISKDTSKNQVVLTMTNMDPVDTATYYCARGVPAYSHGGDLWGQGTLVTVSSASTKGPSVFPLAPSSKSTSGGTAALGCLVKDYFPEPVTVSWNSGALTSGVHTFPAVLQSSGLYSLSSVVTVPSSSLGTQTYICNVNHKPSNTKVDKKVEPKSCDKTHTCPPCPAFELLTGPSVFLFPPKPKDTLMISRTPEVTCVVVDVSDEDPEVKFNWYVDGVEVHNAKTKPREEQYNSTYRVVSVLTVLHQDWLNGKEYKCKVSNKALPKPIEKTISKAKGQPREPQVYTLPPSREEMTKNQVSLTCLVKGFYPSDIAVEWESNGQPENNYKTTPPVLDSDGSFFLYSKLTVDKSRWQQGNVFSCSVMHEALHNHYTQKSLSLSP
light: B1 light
notes: copies: 2 + 2
B3: M103205H795-MY447/M103202L889-SK1 (antibody, human IgG1, kappa)
heavy: B2 heavy with F234I
light: B1 light
notes: copies: 2 + 2
B4: M103205H795-MY448/M103202L889-SK1 (antibody, human IgG1, kappa)
heavy: B2 heavy with F234K
light: B1 light
notes: copies: 2 + 2
B5: M103205H795-MY446/M103202L889-SK1 (antibody, human IgG1, kappa)
heavy: B2 heavy with F234H
light: B1 light
notes: copies: 2 + 2
B6: M103205H795-MY441/M103202L889-SK1 (antibody, human IgG1, kappa)
heavy: B2 heavy with F234A
light: B1 light
notes: copies: 2 + 2
B7: M103205H795-MY445/M103202L889-SK1 (antibody, human IgG1, kappa)
heavy: B2 heavy with F234G
light: B1 light
notes: copies: 2 + 2
B8: M103205H795-MY265/M103202L889-SK1 (antibody, human IgG1, kappa)
heavy: B2 heavy with F234P
light: B1 light
notes: also called MS103205H795-MY265; copies: 2 + 2
B9: M103205H795-MY443/M103202L889-SK1 (antibody, human IgG1, kappa)
heavy: B2 heavy with F234E
light: B1 light
notes: copies: 2 + 2
B10: M103205H795-MY442/M103202L889-SK1 (antibody, human IgG1, kappa)
heavy: B2 heavy with F234D
light: B1 light
notes: copies: 2 + 2

Molecular target: T1, cynomolgus monkey FcγRIIa2 …
Experiment: SPR (BIACORE); KD of SG1 divided by KD of variant
Description: (§1) The kinetic analysis of interactions between these antibodies and FcγR was carried out using BIACORE® T200 or BIACORE® 4000 (GE Healthcare). HBS-EP+ (GE Healthcare) was used as the running buffer, and the measurement temperature was set to 25° C. A chip produced by immobilizing Protein A. Protein A/G or mouse anti-human IgG kappa light chain (BD Biosciences) onto a Series S Sensor Chip CM4 or CM5 (GE Healthcare) by the amine-coupling method was used. […] After the measurement, the antibody captured on the chip was washed off by allowing reaction with 10 mM glycine-HCl, pH1.5 and 25 mM NaOH so that the chip was regenerated and used repeatedly. The sensorgrams obtained as measurement results were analyzed by the 1:1 Langmuir binding model using the BIACORE® Evaluation Software to calculate the binding rate constant ka (L/mol/s) and dissociation rate constant kd (l/s), and the dissociation constant KD (mol/L) was calculated from these values. […] Regarding such interactions, KD values were calculated using the following 1:1 binding model described in BIACORE® T100 Software Handbook BR1006-48 Edition AE.

Row | KD fold (SG1 = 1) [fold] | Binder
1 | 1 | B1
2 | 4.6 | B2
3 | 5.3 | B3
4 | 0.7 | B4
5 | 2.3 | B5
6 | 1.5 | B6
7 | 0.9 | B7
8 | 2.7 | B8
9 | 1 | B9
10 | 1.2 | B10

Molecular target: T9, human FcγRIIIaV extracellular domain, His-tagged (human, UniProt P08637 17-208)
T9 construct: also called FcgRIIIaV; not shown: C-terminal His-tag
T9 sequence (P08637 17-208 F176V): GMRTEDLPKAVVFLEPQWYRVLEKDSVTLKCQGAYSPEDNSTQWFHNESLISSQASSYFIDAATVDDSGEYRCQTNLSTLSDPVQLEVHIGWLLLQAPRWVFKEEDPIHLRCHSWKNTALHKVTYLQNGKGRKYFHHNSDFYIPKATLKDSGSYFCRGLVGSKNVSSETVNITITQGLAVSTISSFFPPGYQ
Experiment: SPR (BIACORE); KD of SG1 divided by KD of variant
Description: as §1

Row | KD fold (SG1 = 1) [fold] | Binder
11 | 1 | B1
12 | 0.3 | B2
13 | 0.2 | B3
14 | 0.1 | B4
15 | 0.1 | B5
16 | 0.1 | B6
17 | 0.1 | B7
18 | 0.2 | B8
19 | 0.1 | B9
20 | 0.2 | B10

Molecular target: T2, cynomolgus monkey FcγRIIIaS …
Experiment: SPR (BIACORE); KD of SG1 divided by KD of variant
Description: as §1

Row | KD fold (SG1 = 1) [fold] | Binder
21 | 1 | B1
22 | 0.2 | B2
23 | 0.5 | B3
24 | 0.1 | B4
25 | 0.1 | B5
26 | 0.1 | B6
27 | 0.1 | B7
28 | 0.2 | B8
29 | 0.1 | B9
30 | 0.2 | B10

Molecular target: T3, cynomolgus monkey FcγRIIb extracellular …
Experiment: SPR (BIACORE); KD of SG1 divided by KD of variant
Description: as §1

Row | KD fold (SG1 = 1) [fold] | Binder
31 | 1 | B1
32 | 6 | B2
33 | 7.8 | B3
34 | 0.6 | B4
35 | 2.6 | B5
36 | 2 | B6
37 | 1.9 | B7
38 | 3.1 | B8
39 | 1.5 | B9
40 | 1.6 | B10

Molecular target: T4, cynomolgus monkey FcγRIIa3 …
Experiment: SPR (BIACORE); KD of SG1 divided by KD of variant
Description: as §1

Row | KD fold (SG1 = 1) [fold] | Binder
41 | 1 | B1
42 | 6.9 | B2
43 | 11.3 | B3
44 | 0.8 | B4
45 | 3.6 | B5
46 | 2.1 | B6
47 | 1.2 | B7
48 | 3.5 | B8
49 | 1.9 | B9
50 | 2.5 | B10

Molecular target: T5, human FcγRIIb extracellular domain, …
Experiment: SPR (BIACORE); KD of SG1 divided by KD of variant
Description: as §1

Row | KD fold (SG1 = 1) [fold] | Binder
51 | 1 | B1
52 | 6.2 | B2
53 | 10.5 | B3
54 | 0.5 | B4
55 | 1.9 | B5
56 | 1.6 | B6
57 | 1.1 | B7
58 | 2.1 | B8
59 | 1.6 | B9
60 | 2.6 | B10

Molecular target: T6, human FcγRIIaH extracellular domain, …
Experiment: SPR (BIACORE); KD of SG1 divided by KD of variant
Description: as §1

Row | KD fold (SG1 = 1) [fold] | Binder
61 | 1 | B1
62 | 6.3 | B2
63 | 7.1 | B3
64 | 0.7 | B4
65 | 2.7 | B5
66 | 1.9 | B6
67 | 1.2 | B7
68 | 3.3 | B8
69 | 1.3 | B9
70 | 1.5 | B10

Molecular target: T7, cynomolgus monkey FcγRIIa1 …
Experiment: SPR (BIACORE); KD of SG1 divided by KD of variant
Description: as §1

Row | KD fold (SG1 = 1) [fold] | Binder
71 | 1 | B1
72 | 2.7 | B2
73 | 3.2 | B3
74 | 0.3 | B4
75 | 1.3 | B5
76 | 0.8 | B6
77 | 0.6 | B7
78 | 1.5 | B8
79 | 0.7 | B9
80 | 0.7 | B10

Molecular target: T8, human FcγRIIaR extracellular domain, …
Experiment: SPR (BIACORE); KD of SG1 divided by KD of variant
Description: as §1

Row | KD fold (SG1 = 1) [fold] | Binder
81 | 1 | B1
82 | 7.9 | B2
83 | 11.2 | B3
84 | 0.5 | B4
85 | 2.3 | B5
86 | 1.8 | B6
87 | 1 | B7
88 | 2.5 | B8
89 | 1.7 | B9
90 | 2.6 | B10
